{
  "source": "paper PMC4198189",
  "about": "“Human Valacyclovir Hydrolase/Biphenyl Hydrolase-Like Protein Is a Highly Efficient Homocysteine Thiolactonase” (PLoS ONE, 2014)",
  "proteins": {"B1": {"name": "human liver BPHL (purified human liver HCTLase) (Homo sapiens) (protein)", "chain": "SVTSAKVAVNGVQLHYQQTGEGDHAVLLLPGMLGSGETDFGPQLKNLNKKLFTVVAWDPRGYGHSRPPDRDFPADFFERDAKDAVDLMKALKFKKVSLLGWSDGGITALIAAAKYPSYIHKMVIWGANAYVTDEDSMIYEGIRDVSKWSERTRKPLEALYGYDYFARTCEKWVDGIRQFKHLPDGNICRHLLPRVQCPALIVHGEKDPLVPRFHADFIHKHVKGSRLHLMPEGKHNLHLRFADEFNKLAEDFLQ", "notes": "native, partially purified from pooled human liver (five donors); about 30 kDa by gel filtration; identified by MS, with ACAA1 and hydroxyacyl-CoA dehydrogenase bands co-purifying"}},
  "substrate": "N[C@H]1CCSC1=O",
  "experiment": "purified protein",
  "type": "biochemical, Homo sapiens",
  "conditions": "Dulbecco's PBS with 0.32 mM DTNB, 37 °C, partially purified native enzyme",
  "data": [
    {"protein": "B1", "values": [
      {"measurement": "Km", "result": 3.92, "unit": "mM"}
    ]}
  ]
}
